SMILES strings stand for the structures. Starred links: 1 amine or outer side, 2 acyl side, 3 side chain; linkers in the order of their positions; H or OH if unused. Positions of bridges follow the written chain, without caps; N, C: chain ends. Non-standard residues stand in square brackets, D forms with d. Residues, ends and D or L forms follow the SMILES beside them. *: point of attachment. X1 = CCOCc1nc2c(NC(=O)OCCSSC(C)CCC(=O)*)nc3ccccc3c2n1CC(C)(C)O; 1Nal = N[C@@H](Cc1cccc2ccccc12)C(=O)O; TBMB = c1c(C[*:1])cc(C[*:3])cc1C[*:2]; Tle = CC(C)(C)[C@H](N)C(=O)O; βAla = NCCC(=O)O; Sar = CNCC(=O)O

One data set can be described thus: Plasma stability, human. The class given is in vitro ADME. The settings on record: pH 7.4; human plasma, 2 μM, 37° C.; read-out: T1/2 (human).
Another data set addresses T1, human TLR8 (Homo sapiens, UniProt Q9NR97).
T1 construct: host or cells: HEK293 reporter cell line
T1 sequence (Q9NR97 27-1041): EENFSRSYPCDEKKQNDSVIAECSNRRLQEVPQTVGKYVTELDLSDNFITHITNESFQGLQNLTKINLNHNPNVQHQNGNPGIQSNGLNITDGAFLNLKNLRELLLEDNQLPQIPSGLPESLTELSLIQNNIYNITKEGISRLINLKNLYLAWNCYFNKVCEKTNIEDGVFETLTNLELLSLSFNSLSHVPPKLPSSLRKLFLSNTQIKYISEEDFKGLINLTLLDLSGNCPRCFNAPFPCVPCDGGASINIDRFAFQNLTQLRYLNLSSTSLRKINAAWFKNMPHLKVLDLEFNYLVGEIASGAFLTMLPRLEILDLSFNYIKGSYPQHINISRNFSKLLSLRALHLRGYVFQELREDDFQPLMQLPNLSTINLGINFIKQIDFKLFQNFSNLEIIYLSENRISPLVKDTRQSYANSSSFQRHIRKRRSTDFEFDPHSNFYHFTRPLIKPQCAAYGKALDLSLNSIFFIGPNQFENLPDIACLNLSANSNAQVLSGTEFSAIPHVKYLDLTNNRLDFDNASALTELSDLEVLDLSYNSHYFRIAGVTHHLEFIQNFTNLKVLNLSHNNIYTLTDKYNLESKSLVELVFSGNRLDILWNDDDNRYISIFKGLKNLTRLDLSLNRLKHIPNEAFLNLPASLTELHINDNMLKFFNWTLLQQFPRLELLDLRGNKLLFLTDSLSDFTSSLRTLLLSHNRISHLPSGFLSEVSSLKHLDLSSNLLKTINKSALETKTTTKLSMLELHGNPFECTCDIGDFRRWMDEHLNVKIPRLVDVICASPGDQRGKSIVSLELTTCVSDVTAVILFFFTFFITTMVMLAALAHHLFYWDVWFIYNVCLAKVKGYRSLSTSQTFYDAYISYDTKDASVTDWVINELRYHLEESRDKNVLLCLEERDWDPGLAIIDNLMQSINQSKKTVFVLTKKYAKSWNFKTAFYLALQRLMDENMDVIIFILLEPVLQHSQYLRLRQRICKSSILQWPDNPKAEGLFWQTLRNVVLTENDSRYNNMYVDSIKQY
Kind of data set: Human TLR8 receptor activation, HEK293 reporter cell line. In kind it is cell-based. The settings on record: HEK293 reporter cells, 16 hours. The method, then: (§1) Compounds were tested for their activity to activate human TLR7 and TLR8 receptors using HEK293 reporter cell lines engineered to express respective receptors in accordance to manufacturer's instructions (InvivoGen). […] Incubation was for 16 hours at 37° C. and […]. Absorption at 655 nm was read on […]. Data was fitted using PRISM.

Another data set can be described thus: Plasma stability, mouse. The class given is in vitro ADME. The settings on record: pH 7.4; mouse plasma, 2 μM, 37° C.; read-out: T1/2 (mouse).
The next data set is described as follows: Plasma stability, rat. In kind it is in vitro ADME. The settings on record: pH 7.4; rat plasma, 2 μM, 37° C.; read-out: T1/2 (rat).
Another data set deals with T2, human TLR7 (Homo sapiens, UniProt Q9NYK1).
T2 construct: host or cells: HEK293 reporter cell line
T2 sequence (Q9NYK1 27-1049): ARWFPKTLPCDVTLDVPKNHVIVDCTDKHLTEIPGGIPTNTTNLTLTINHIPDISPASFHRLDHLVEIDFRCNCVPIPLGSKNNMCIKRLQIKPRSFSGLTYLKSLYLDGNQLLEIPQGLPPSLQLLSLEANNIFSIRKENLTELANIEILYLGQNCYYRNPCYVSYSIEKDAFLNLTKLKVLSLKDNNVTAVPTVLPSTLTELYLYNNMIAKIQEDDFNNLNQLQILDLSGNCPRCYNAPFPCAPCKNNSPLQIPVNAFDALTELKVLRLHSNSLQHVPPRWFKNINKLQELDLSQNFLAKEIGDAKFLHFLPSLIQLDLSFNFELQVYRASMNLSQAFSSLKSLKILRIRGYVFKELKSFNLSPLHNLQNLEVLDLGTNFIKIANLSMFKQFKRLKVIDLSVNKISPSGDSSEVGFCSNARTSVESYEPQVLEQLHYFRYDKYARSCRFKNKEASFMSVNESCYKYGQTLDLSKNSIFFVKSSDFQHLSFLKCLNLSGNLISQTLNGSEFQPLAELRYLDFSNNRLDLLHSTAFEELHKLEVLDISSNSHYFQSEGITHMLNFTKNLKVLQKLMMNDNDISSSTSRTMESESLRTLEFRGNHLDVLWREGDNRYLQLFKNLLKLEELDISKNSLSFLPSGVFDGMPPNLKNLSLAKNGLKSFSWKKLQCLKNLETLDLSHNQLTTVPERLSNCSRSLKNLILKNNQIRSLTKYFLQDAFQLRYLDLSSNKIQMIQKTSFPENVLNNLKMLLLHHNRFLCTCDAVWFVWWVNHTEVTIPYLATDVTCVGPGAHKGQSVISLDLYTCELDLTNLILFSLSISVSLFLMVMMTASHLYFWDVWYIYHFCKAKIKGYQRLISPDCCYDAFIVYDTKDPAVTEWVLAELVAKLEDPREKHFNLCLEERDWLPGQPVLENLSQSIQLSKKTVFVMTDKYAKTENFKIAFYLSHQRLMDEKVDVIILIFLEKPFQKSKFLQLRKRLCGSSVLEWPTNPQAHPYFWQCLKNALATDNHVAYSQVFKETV
Put plainly: Human TLR7 receptor activation, HEK293 reporter cell line. The settings on record: HEK293 reporter cells, 16 hours. The class given is cell-based. The procedure: as §1

For the compound `CCOCc1nc2c(NC(=O)OCCSSC(C)CCC(=O)NCCC(=O)N(C)CC(=O)N(C)CC(=O)N(C)CC(=O)N(C)CC(=O)N(C)CC(=O)N(C)CC(=O)N(C)CC(=O)N(C)CC(=O)N(C)CC(=O)N(C)CC(=O)N[C@@H](C)C(=O)N[C@H]3CSCc4cc5cc(c4)CSC[C@H](NC(=O)[C@@H](C)NC(=O)[C@H](Cc4cccc6ccccc46)NC(=O)[C@H](CCC(=O)O)NC(=O)[C@H](CC(N)=O)NC(=O)[C@@H](C)NC3=O)C(=O)N[C@@H](CCC(=O)O)C(=O)N[C@@H](CC(=O)O)C(=O)N[C@@H](Cc3ccccc3)C(=O)N[C@@H](Cc3ccc(O)cc3)C(=O)N[C@@H](CC(=O)O)C(=O)N[C@@H](C(C)(C)C)C(=O)N[C@H](C(N)=O)CSC5)nc3ccccc3c2n1CC(C)(C)O` (some centres unmarked) [I-8] ({X1-βAla}-[Sar][Sar][Sar][Sar][Sar][Sar][Sar][Sar][Sar][Sar]AC[dA]NE[1Nal][dA]CEDFYD[Tle]C-NH2; linker 12-18-25 via TBMB), the half-life at 2 μM is 2 to 6 h in the data set “Plasma stability, human”; < 2 h in “Plasma stability, mouse”; < 2 h in “Plasma stability, rat”. For the same compound, the “hTLR8 activation potency versus naked payload resiquimod” value at human TLR8 is given as “considerably reduced potency or inactivity”. Also, at human TLR7, the “hTLR7 activation potency versus naked payload resiquimod” value is listed as “considerably reduced potency or inactivity”.
